Laboratory results taken from patent publication US20180371107A1 (published 2018).

T1: mouse zymogen NSP4 (mZ-NSP4) (mouse), Q14B24
T1 chain: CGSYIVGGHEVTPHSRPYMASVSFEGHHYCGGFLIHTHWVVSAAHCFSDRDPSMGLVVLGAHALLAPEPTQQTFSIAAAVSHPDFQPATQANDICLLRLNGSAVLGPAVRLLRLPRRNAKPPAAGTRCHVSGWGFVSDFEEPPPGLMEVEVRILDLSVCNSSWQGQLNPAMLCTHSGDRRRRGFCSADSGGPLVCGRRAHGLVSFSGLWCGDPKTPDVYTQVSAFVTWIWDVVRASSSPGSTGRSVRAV

T2: mouse active NSP4 (mA-NSP4) (mouse, UniProt Q14B24 40-284)
T2 construct: mature; Made from mZ by enteropeptidase cleavage; also called mature form of mouse NSP4
T2 sequence (looked up): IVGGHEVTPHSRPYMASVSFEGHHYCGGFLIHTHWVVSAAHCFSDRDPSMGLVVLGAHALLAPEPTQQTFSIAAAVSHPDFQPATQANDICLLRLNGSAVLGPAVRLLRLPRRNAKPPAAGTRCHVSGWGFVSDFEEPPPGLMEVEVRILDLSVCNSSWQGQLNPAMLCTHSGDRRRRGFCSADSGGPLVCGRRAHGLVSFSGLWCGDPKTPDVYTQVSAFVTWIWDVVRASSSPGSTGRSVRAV

T3: mouse NSP4 (mNSP4), form not stated in Example 6 (mouse, UniProt Q14B24 40-284, limits assumed)
T3 construct: also called recombinant mouse NSP4; purified mouse NSP4
T3 sequence (looked up): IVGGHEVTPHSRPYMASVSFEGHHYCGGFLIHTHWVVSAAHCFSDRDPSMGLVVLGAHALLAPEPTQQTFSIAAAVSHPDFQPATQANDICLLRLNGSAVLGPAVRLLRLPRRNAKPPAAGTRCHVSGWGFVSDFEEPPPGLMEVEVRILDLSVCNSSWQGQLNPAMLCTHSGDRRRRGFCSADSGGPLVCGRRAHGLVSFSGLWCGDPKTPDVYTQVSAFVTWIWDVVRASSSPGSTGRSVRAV

T4: mouse zymogen NSP4 (mZ-NSP4) (mouse, UniProt Q14B24 36-284)
T4 construct: Expressed in CHO cells; also called precursor form of mouse NSP4; not shown: N-terminal FLAG tag removable by enteropeptidase (cleavage after Asp-Asp-Asp-Asp-Lys)
T4 sequence (looked up): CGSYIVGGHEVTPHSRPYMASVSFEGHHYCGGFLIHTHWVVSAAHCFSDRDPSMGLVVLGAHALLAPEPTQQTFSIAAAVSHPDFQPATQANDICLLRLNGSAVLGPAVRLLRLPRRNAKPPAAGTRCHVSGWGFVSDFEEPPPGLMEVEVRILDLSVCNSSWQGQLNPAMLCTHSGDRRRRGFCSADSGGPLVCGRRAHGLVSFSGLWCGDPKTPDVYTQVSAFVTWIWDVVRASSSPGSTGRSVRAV

T5: human NSP4 (hNSP4), form not stated in Example 6 (human, UniProt Q6UWY2 34-283, limits assumed)
T5 sequence (looked up): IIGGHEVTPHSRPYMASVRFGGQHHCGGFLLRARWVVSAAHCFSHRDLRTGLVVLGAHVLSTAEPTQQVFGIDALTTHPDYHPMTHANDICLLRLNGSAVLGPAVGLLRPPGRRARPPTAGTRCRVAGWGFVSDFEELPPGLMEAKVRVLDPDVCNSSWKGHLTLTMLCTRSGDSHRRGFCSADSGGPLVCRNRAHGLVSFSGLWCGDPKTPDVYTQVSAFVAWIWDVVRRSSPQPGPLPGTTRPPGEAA


Experiments:
[1] = target: T1, mouse zymogen NSP4 (mZ-NSP4) (mouse), …; experiment: BLI; no affinity; details: chains VH:VL; remark: other sources report otherwise
[2] = target: T2, mouse active NSP4 (mA-NSP4); experiment: competition phage ELISA (phage IC50): phage clone preincubated with soluble mA-NSP4, then on NSP4-coated wells
Protocol: Phage at sub-saturating concentrations were first incubated with increasing concentrations of target NSP4 antigen (either hZ, hA, mZ, or mA) for 1 to 2 hour(s), and then transferred to wells coated with the same NSP4 antigen to capture the unbound phage.
Briefly, 2 ug/ml of NSP4 (hZ, hA, mZ, or mA variants) was coated on wells overnight at 4° C. in PBS supplemented with 0.5% BSA. Each individual phage clone (at 0.01 OD/ml) was purified and incubated with increasing concentrations of soluble NSP4 protein for 2 h at room temperature before being placed into wells coated with immobilized NSP4 protein for 15 min at room temperature. The wells were then washed with PBS supplemented with 0.05% Tween-20 for 10 times and developed using anti-M13 phage antibody conjugated with HRP (New England Biolabs). […] The soluble phage:antigen complex, with higher likelihood to be high-affinity phage clones, would thus be removed through successive washing steps, resulting in lower A450 signal at any given concentration of soluble antigen. Consequently, higher affinity phage clones would have a lower phage IC50 value, with a concomitant leftward-shift in the binding curves, compared to lower affinity phage clones.

[3] = target: T3, mouse NSP4 (mNSP4), form not stated in …; experiment: phage competition binding assay (phage IC50), soluble mNSP4 competitor
[4] = target: T4, mouse zymogen NSP4 (mZ-NSP4); experiment: competition phage ELISA (phage IC50): phage clone preincubated with soluble mZ-NSP4, then on NSP4-coated wells
[5] = target: T5, human NSP4 (hNSP4), form not stated in …; experiment: phage competition binding assay (phage IC50), soluble hNSP4 competitor

Row | Binder | Kd [1] [nM] | IC50 [2] [nM] | IC50 [3] [nM] | IC50 [4] [nM] | IC50 [5] [nM]
1 | anti-NSP4 antibody 5-1 (antibody, V domains shown, also called Ab 5-1; Ab5-1) VH: EVQLVESGGGLVQPGGSLRLSCAASGFTFSGSGIHWVRQAPGKGLEWVAWISPTGGNTYYADSVKGRFTISADTSKNTAYLQMNSLRAEDTAVYYCAKSLFHNVAFDYWGQGTLVTVSS VL: DIQMTQSPSSLSASVGDRVTITCRASQDVSTAVAWYQQKPGKAPKLLIYSASFLYSGVPSRFSGSGSGTDFTLTISSLQPEDFATYYCQQSYTTPPTFGQGTKVEIKR | > 1000 | 9.93 | 18.7 | – | –
2 | anti-NSP4 antibody 5-3 (antibody, human IgG1, V domains shown) VH: EVQLVESGGGLVQPGGSLRLSCAASGFTFSGNDISWVRQAPGKGLEWVAGISPYGGSTYYADSVKGRFTISADTSKNTAYLQMNSLRAEDTAVYYCARRVSFYSRHAGMDYWGQGTLVTVSS VL: DIQMTQSPSSLSASVGDRVTITCRASQDVSTAVAWYQQKPGKAPKLLIYSASFLYSGVPSRFSGSGSGTDFTLTISSLQPEDFATYYCQQSYTTPPTFGQGTKVEIKR | > 1000 | 319 | – | – | –
3 | anti-NSP4 antibody 5-4 (antibody, human IgG1, V domains shown, also called Ab 5-4) VH: EVQLVESGGGLVQPGGSLRLSCAASGFTFTSYAISWVRQAPGKGLEWVAGISPSNGYTNYADSVKGRFTISADTSKNTAYLQMNSLRAEDTAVYYCARAGRWTHSDIDYWGQGTLVTVSS VL: DIQMTQSPSSLSASVGDRVTITCRASQDVSTAVAWYQQKPGKAPKLLIYSASFLYSGVPSRFSGSGSGTDFTLTISSLQPEDFATYYCQQSYTTPPTFGQGTKVEIKR | > 1000 | 60.5 | – | – | –
4 | anti-NSP4 antibody 3-2 (antibody, V domains shown, also called Ab 3-2) VH: EVQLVESGGGLVQPGGSLRLSCAASGFTFSDYSISWVRQAPGKGLEWVGEINPAGGATYYADSVKGRFTISADTSKNTAYLQMNSLRAEDTAVYYCARGDFPFWSDAYYVMDYWGQGTLVTVSS VL: DIQMTQSPSSLSASVGDRVTITCRASQDVSTAVAWYQQKPGKAPKLLIYSASFLYSGVPSRFSGSGSGTDFTLTISSLQPEDFATYYCQQSYTTPPTFGQGTKVEIKR | – | – | – | 0.15 | –
5 | anti-NSP4 antibody 3-5 (antibody, V domains shown, also called Ab 3-5; Ab35) VH: EVQLVESGGGLVQPGGSLRLSCAASGFTFSDNDISWVRQAPGKGLEWVGSISPDNGDTNYADSVKGRFTISADTSKNTAYLQMNSLRAEDTAVYYCARDDVPAVFTSAMDYWGQGTLVTVSS VL: DIQMTQSPSSLSASVGDRVTITCRASQDVSTAVAWYQQKPGKAPKLLIYSASFLYSGVPSRFSGSGSGTDFTLTISSLQPEDFATYYCQQSYTTPPTFGQGTKVEIKR | – | – | 0.131 | 0.18 | 32.8
